From PMC12126530

Key:
[1] = target: Full-length Hsc70-T204A (ATPase deficient mutant) (human) (UniProt P11142); assay: NMR 15N-CPMG relaxation dispersion with exchange-induced shifts; 15N-labelled JDP (DNAJB6 JD-GF 200 μM, DNAJB6 JD 350 μM, DNAJB1 300 μM) with unlabelled Hsc70-T204A at a molar ratio of 0.1, ATP-regenerating system, 20 mM HEPES pH 7.0, 50 mM KCl, 2.5 mM MgCl2, 25 °C, 600, 800 and 950 MHz; fit to a 2-state model; kex = kon app + koff
[2] = target: Full-length Hsc70-T204A (ATPase deficient mutant) (human) (UniProt P11142); assay: NMR 15N-CPMG relaxation dispersion and exchange-induced shifts; 15N-labelled JDP observed, unlabelled Hsc70-T204A added to a molar ratio of 0.1 (DNAJB6 JD-GF 200 uM, DNAJB6 JD 350 uM, DNAJB1 300 uM); 25 °C; 20 mM HEPES pH 7.0, 50 mM KCl, 2.5 mM MgCl2; ATP-regenerating system with 2.5 mM ATP; fit to a two-state binding model

Full-length Hsc70-T204A (ATPase deficient mutant) (human), sequence (P11142 whole entry T204A): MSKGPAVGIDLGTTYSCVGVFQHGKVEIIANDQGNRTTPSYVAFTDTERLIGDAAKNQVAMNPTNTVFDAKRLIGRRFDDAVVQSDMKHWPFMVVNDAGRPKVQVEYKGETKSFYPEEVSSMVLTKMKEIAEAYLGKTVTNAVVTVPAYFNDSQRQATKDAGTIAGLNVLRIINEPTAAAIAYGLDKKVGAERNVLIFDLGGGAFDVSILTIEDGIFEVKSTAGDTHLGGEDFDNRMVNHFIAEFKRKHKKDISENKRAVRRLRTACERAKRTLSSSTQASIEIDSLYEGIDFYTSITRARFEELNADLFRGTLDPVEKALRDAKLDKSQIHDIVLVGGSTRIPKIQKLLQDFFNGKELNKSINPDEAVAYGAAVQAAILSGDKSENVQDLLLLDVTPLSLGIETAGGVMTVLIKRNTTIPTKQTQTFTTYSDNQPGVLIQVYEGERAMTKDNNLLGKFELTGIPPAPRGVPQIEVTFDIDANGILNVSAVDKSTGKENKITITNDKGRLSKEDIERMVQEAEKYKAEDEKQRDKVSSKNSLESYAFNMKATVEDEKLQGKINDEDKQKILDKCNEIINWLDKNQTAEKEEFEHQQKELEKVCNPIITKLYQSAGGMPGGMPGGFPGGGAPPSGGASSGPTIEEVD

Row | Kd [1] | kex [1] | koff [1] | kon [2] | Substance
1 | 3 µM | 3000 s⁻¹ | 2700 s⁻¹ | – | DNAJB6 JD (from UniProt O75190 1-326) (domain or fragment)
2 | 380 µM | 600 s⁻¹ | 580 s⁻¹ | 1.54e+06 M⁻¹ s⁻¹ | DNAJB6 JD-GF (from UniProt O75190 1-326) (domain or fragment)
